Test results from IntAct's records for PubMed 18676636.

B1: Forkhead box protein C1 (Homo sapiens), Q12948 (parent)
chain: MQARYSVSSPNSLGVVPYLGGEQSYYRAAAAAAGGGYTAMPAPMSVYSHPAHAEQYPGGMARAYGPYTPQPQPKDMVKPPYSYIALITMAIQNAPDKKITLNGIYQFIMDRFPFYRDNKQGWQNSIRHNLSLNECFVKVPRDDKKPGKGSYWTLDPDSYNMFENGSFLRRRRRFKKKDAVKDKEEKDRLHLKEPPPPGRQPPPAPPEQADGNAPGPQPPPVRIQDIKTENGTCPSPPQPLSPAAALGSGSAAAVPKIESPDSSSSSLSSGSSPPGSLPSARPLSLDGADSAPPPPAPSAPPPHHSQGFSVDNIMTSLRGSPQSAAAELSSGLLASAAASSRAGIAPPLALGAYSPGQSSLYSSPCSQTSSAGSSGGGGGGAGAAGGAGGAGTYHCNLQAMSLYAAGERGGHLQGAPGGAGGSAVDDPLPDYSLPPVTSSSSSSLSHGGGGGGGGGGQEAGHHPAAHQGRLTSWYLNQAGGDLGHLASAAAAAAAAGYPGQQQNFHSVREMFESQRIGLNNSPVNGNSSCQMAFPSSQSLYRTSGAFVYDCSKF

Variants of: B1
Conditions: with C1QBP

| effect of a mutation on the interaction | Variant |
| --- | --- |
| disrupting interaction | F112S |
